The source of these data is patent US20030124132A1 (University of Texas, published 2003).

For assay [1], the system named is HT29 (human colorectal carcinoma) xenograft. Description: Tumor necrosis by tTF constructs with Factor VIIa, HT29 xenograft. The assay is classed as in vivo, BALB/c nu/nu mice. The following applies: single agents; 24 hours.
Assay [2] has as its system C1300 Muγ tumors. Description: Anti-tumor effects of tTF and immunoglobulin-tTF in C1300 Muγ tumors. The assay is classed as in vivo, nu/nu mice. The following applies: 300 mm^3 tumors. The protocol: (§1) The tumor test systems were: i) L540 human Hodgkin's disease tumors growing in SCID mice; ii) C1300 Muγ (interferon-secreting) neuroblastoma growing in nu/nu mice; iii) H460 human non-small cell lung carcinoma growing in nu/nu mice. To establish solid tumors, 1.5×10^7 tumor cells were injected subcutaneously into the right anterior flank of SCID or BALB/c nu/nu mice (Charles River Labs., Wilmingham, Mass.). When the tumors had grown to various diameters, mice were assigned to different experimental groups, each containing 4 to 9 mice.
(§2) Other mice received equivalent quantities of bispecific antibody alone. The injections were performed over ˜45 seconds into one of the tail veins, followed by 200 μl of saline. The infusions were repeated six days later. Perpendicular tumor diameters were measured at regular intervals and tumor volumes were calculated.
Mice bearing small (300 mm^3) C1300 Muγ tumors were injected intravenously with 16-20 μg tTF219. The treatment was repeated one week later. […] One week after the second treatment with tTF219, tumors were 60% of the size of tumors in mice receiving diluent alone. The greater effectiveness of the second injection probably derives from the greater thrombotic action of tTF219 on vessels in large tumors, observed above.
Mice bearing small (300 mm^3) subcutaneous C1300 Muγtumors were treated with tTF219 or with a complex of tTF219 and a bispecific antibody, OX7 Fab′/10H10 Fab′, not directed to a component of the tumor environment. The treatment was repeated 6 days later.

Assay [3] concerns C1300 Muγ mouse neuroblastoma vessels. Description: In vivo tumor thrombosis by tTF, C1300 Muγ. More on the design: species or system BALB/c nu/nu mice. The text has this:
(§3) Tumor test systems were of four types: i) 3LL mouse lung carcinoma growing subcutaneously in C57BL/6 mice; ii) C1300 mouse neuroblastoma growing subcutaneously in BALB/c nu/nu mice; iii) HT29 human colorectal carcinoma growing subcutaneously in BALB/c nu/nu mice; and iv) C1300 Muγ mouse neuroblastoma growing subcutaneously in BALB/c nu/nu mice. The C1300 Muγ tumor is an interferon-γ secreting transfectant derived from the C1300 tumor (Watanabe et al., 1989).
(§4) To establish tumors, 10^6 to 1.5×10^7 tumor cells were injected subcutaneously into the right anterior flank of the mice. When tumors had grown to various sizes, mice were randomly assigned to different study groups. […] Fab′, or bispecific antibody. Other mice received equivalent quantities IgG, Fab′ or bispecific antibody alone. The injections were performed slowly into one of the tail veins over approximately 45 seconds, usually followed by 200 μl of saline.
(§5) Twenty-four hours after being injected with tTF or immunoglobulin-tTF conjugates, the mice were anesthetized with metophane and were exsanguinated by perfusion with heparinized saline. Tumors and normal tissues were excised and immediately fixed in 3% (v/v) formalin. Paraffin sections were cut and stained with hematoxylin and eosin. Blood vessels having open lumens containing erythrocytes and blood vessels containing thrombi were counted. […]

The test system of assay [4] is A20 lymphoma cells (I-A^d positive), mouse or human plasma. Description: In vitro coagulation assay on A20 cells with capture bispecific antibody B21-2/10H10. Format: cell-based.
The subject of assay [5] is HT29 human colorectal carcinomas. Description: Anti-tumor effects of tTF219 in HT29 tumors. The assay is classed as in vivo, Nu/nu mice. The note with it: large (1200 mm^3) tumors, i.v. Here is the method:
Anti-tumor effects were also observed in mice bearing HT29 human colorectal carcinomas. Nu/nu mice bearing large (1200 mm^3) tumors on their flanks were injected intravenously with tTF219 or PBS (control), and growth of the tumors was monitored each day for 10 days. The tumors in the tTF219 treated mice discontinued growth for about 7 days after treatment, whereas the tumors in mice treated with PBS continued to grow unchecked.

Assay [6] has as its system H460 human lung carcinomas. Description: Anti-tumor effects of tTF219 in H460 tumors. The assay is classed as in vivo, nu/nu mice. Here is the method:
as §1, §2
In addition to the effects in mice bearing C1300 Muγ tumors, similar anti-tumor effects were observed using other tumor types. […] The second treatment with tTF219 was given when the tumors were larger (900 mm^3) and caused the tumors to regress to 550 mm^3 before regrowing.

The subject of assay [7] is 3LL mouse lung carcinoma vessels. Description: In vivo tumor thrombosis by tTF, 3LL. Also on record: species or system C57BL/6 mice. The note with it: large (>800 mm^3) tumors.
Source text: as §3, §4, §5

Assay [8] deals with C1300 mouse neuroblastoma vessels. Description: In vivo tumor thrombosis by tTF, C1300. More on the design: species or system BALB/c nu/nu mice.
Source text: as §3, §4, §5

B1: tTF219: residues 1-219 of TF plus an additional glycine at the N-terminus (protein)
chain: GSGTTNTVAAYNLTWKSTNFKTILEWEPKPVNQVYTVQISTKSGDWKSKCFYTTDTECDLTDEIVKDVKQTYLARVFSYPAGNVESTGSAGEPLYENSPEFTPYLETNLGQPTIQSFEQVGTKVNVTVEDERTLVRRNNTFLSLRDVFGKDLIYTLYYWKSSSSGKKTAKTNTNEFLIDVDKGENYCFSVQAVIPSRTVNRKSTDSPVECMGQEKGEFRE
In the case of B1, the tumor necrosis result in assay [1] is given as “some necrosis”. Moreover, the “tumor size, of tumors in mice receiving diluent alone” value in assay [2] (16-20 μg i.v., repeated one week later, one week after second treatment) is 60%. Further, in assay [2] (treatment repeated 6 days later, fourteen days after the first injection), the “tumor size, of controls receiving diluent alone” value worked out at 75%. Further, the tumor vessel thrombosis result in assay [3] (24 hours after injection) is on record as “practically all vessels in all regions of the tumor were thrombosed”; in assay [3] (small (<500 mm^3) tumors), “largely unaffected”; in assay [8] (large tumors (>1000 mm^3), 24 hours after injection), “virtually all vessels were thrombosed”; in assay [8] (small (<500 mm^3) tumors) it was “largely unaffected”. For the same molecule, the plasma coagulation time in assay [4] (10^−10 M tTF219, 13.5 nM Factor VIIa) turned out to be 20 s; in assay [4] (10^−10 M tTF219, absence of Factor VIIa), 60 s. Further, the “increase in coagulation-inducing potency” value in assay [4] (presence of 0.1 nM Factor VIIa) was 2-5 fold. Besides, the “enhancement in coagulation-inducing potency” value in assay [4] (presence of 13.5 nM Factor VIIa) is reported as around 100 fold. The “time of discontinued tumor growth after treatment” value in assay [5] is recorded as “about 7 days”. In assay [6] (first treatment, tumors 250 mm^3), the “effect on growth rate” value is “little effect on growth rate”. Moreover, the “tumor volume to which tumors regressed” value in assay [6] (second treatment, given at 900 mm^3) is 550 mm^3. Also, the “tumor vessels thrombosed, average” value in assay [7] is 62%.
